T1: human Trop-2 expressed on cell surface (human, UniProt P09758 27-323)
T1 sequence (looked up): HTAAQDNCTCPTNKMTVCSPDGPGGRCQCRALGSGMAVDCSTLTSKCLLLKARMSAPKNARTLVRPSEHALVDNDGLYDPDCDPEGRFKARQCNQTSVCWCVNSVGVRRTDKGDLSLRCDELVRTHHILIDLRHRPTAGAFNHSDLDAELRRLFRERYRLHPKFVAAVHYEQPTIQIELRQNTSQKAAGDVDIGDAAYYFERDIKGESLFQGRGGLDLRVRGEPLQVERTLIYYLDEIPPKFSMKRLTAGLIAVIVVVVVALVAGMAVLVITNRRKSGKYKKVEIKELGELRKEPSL

T2: rat Trop-2 (rat, UniProt Q6P9Z6 25-270, limits assumed)
T2 sequence (looked up): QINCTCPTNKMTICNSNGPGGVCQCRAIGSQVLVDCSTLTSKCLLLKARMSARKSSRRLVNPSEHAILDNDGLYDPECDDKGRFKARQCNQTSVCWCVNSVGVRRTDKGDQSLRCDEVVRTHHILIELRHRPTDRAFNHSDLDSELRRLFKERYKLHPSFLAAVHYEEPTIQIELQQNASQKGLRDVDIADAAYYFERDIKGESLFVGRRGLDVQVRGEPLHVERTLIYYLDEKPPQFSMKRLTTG

T3: human Trop-2-His protein (human, UniProt P09758 27-274)
T3 construct: extracellular domain; Assay paragraphs say only 'Trop-2-His'; also called hTrop-2; Kactus Cat #TRP-HM121; not shown: His tag
T3 sequence (looked up): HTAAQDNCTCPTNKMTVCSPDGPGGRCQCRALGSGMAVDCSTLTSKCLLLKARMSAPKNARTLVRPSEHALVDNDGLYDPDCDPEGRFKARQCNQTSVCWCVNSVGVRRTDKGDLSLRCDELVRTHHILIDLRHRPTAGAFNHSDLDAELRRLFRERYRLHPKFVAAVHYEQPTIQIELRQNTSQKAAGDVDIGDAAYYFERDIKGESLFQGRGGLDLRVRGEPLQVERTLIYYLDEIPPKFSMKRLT


Key:
[1] = target: T1, human Trop-2 expressed on cell surface; assay: cell-based or functional assay
[2] = target: T1, human Trop-2 expressed on cell surface; assay: cell-based or functional assay; remark: listed apart in the source
rat Trop-2 = target: T2, rat Trop-2; assay: ELISA, similar to Table 24
Protocol: Purified antibodies were tested by ELISA to confirm their binding and affinity against human and cynomolgus Trop-2-His protein. Briefly, 96-well Maxisorp plates (Nunc) were coated with 100 μl/well of 0.5 μg/ml human (Kactus Cat #TRP-HM121, or Sino Biological, Cat #10428-HO8H) or cynomolgus Trop-2 protein (Kactus Cat #TRP-CM121, or Sino Biological, Cat #90893-CO8H) diluted in 1×PBS (GIBCO) overnight at 4° C. Plates were washed four times with 300 μl/well washing buffer (1×PBST, diluted from 20×PBST (Thermo Scientific) with distilled water)) and then blocked with 300 μl/well of blocking buffer (1×PBST/3% BSA (BSA, Sigma)) for 2 hours at RT on plate shaker at 100 rpm. Plates were washed and added with 100 μl/well of testing antibodies, which were serial diluted with assay buffer (PBST/1% BSA). The antibodies were incubated at room temperature for 2 hours on plate shaker at 100 rpm. Plates were washed. One hundred microliters (100 μl) of 1:10,000 diluted horseradish peroxidase (HRP) conjugated anti-hIgG antibody (Jackson Immuno Research) was added into each well and incubated at room temperature for 1 hour on plate shaker at 100 rpm. Plates were washed and added with 100 μl/well TMB substrate for color development in dark at room temperature for up to 10 minutes. After addition of 50 μl/well of stop solution (1N H₂SO₄), plates were read at 450 nm on a plate reader (SpectraMax M5). EC₅₀ values were calculated using Graphpad Prism. Sacituzumab govitecan, was used as positive control. Anti-HEL.hIgG1 was used as isotype control.
Similar assays were performed to test whether the exemplary antibodies of the present disclosure bind to human Trop-1 (EpCAM) or mouse Trop-2 (Kactus, Cat #TRP-MM121) or rat Trop-2 (kactus, Cat #TRP_RM121). No binding of the exemplary antibodies of the present disclosure to human Trop-1 (EpCAM) or mouse or rat Trop-2 has been detected.

[3] = target: T1, human Trop-2 expressed on cell surface; assay: cell-based or functional assay; remark: listed apart in the source
human Trop-2-His protein = target: T3, human Trop-2-His protein; assay: BLI (Gator Plus), purified Ab on HFC probe
Protocol: The affinity of the binding of the exemplary anti-Trop-2 antibodies of the present disclosure were determined. Assay was performed using Gator Plus according to the protocol recommended by Gator Bio Inc.. Briefly, human Trop-2-His (Kactus) was 1:4 fold serially diluted starting at 1 μg/ml. After three times of regeneration and neutralization of HFC probe, 1 μg/ml of antibody to be tested in Q buffer was immobilized onto HFC probe. […] The association and dissociation of human Trop-2-His antigen from antibody was measured on BLI machine Gator Plus. Affinity was calculated using Gator Bio analysis software. Blank control was used for reference subtraction. Sacituzumab govitecan was used as positive control.

[4] = target: T1, human Trop-2 expressed on cell surface; assay: flow cytometry, MDA-MB-231-GFP cells
Outline: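 Cells at 10⁶/ml in DPBS/1% FBS were incubated on ice for 1 h with antibodies in 1:3 serial dilutions from 15 μg/mL. Detection used PE anti-human Fc (1:400, 30 min on ice) with 7-AAD viability staining, read by flow cytometry. EC₅₀ from binding curves; anti-HEL hIgG1 isotype control.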

Row | Binder | EC50 of ADCC (NFAT-CD16 reporter), MCF-7 [1] [nM] | EC50 of ADCC (NFAT-CD16 reporter), MDA-MB-231 [1] [nM] | Internalization %, MCF-7, 0.25 µg/ml, 1 h [2] [%] | Internalization %, MCF-7, 0.25 µg/ml, 2 h [2] [%] | Internalization %, MCF-7, 0.25 µg/ml, 4 h [2] [%] | Internalization %, MCF-7, 0.5 µg/ml, 1 h [2] [%] | Internalization %, MCF-7, 0.5 µg/ml, 2 h [2] [%] | Internalization %, MCF-7, 0.5 µg/ml, 4 h [2] [%] | binding result (rat Trop-2) | Internalization %, MDA-MB-231, 0.25 µg/ml, 2 h [3] [%] | Internalization %, MDA-MB-231, 0.25 µg/ml, 4 h [3] [%] | Internalization %, MDA-MB-231, 0.5 µg/ml, 2 h [3] [%] | Internalization %, MDA-MB-231, 0.5 µg/ml, 4 h [3] [%] | Internalization %, MDA-MB-231, 1 µg/ml, 2 h [3] [%] | Internalization %, MDA-MB-231, 1 µg/ml, 4 h [3] [%] | Internalization %, MDA-MB-231, 2 µg/ml, 2 h [3] [%] | Internalization %, MDA-MB-231, 2 µg/ml, 4 h [3] [%] | Kd (human Trop-2-His protein) [nM] | koff (human Trop-2-His protein) [s⁻¹] | kon (human Trop-2-His protein) [M⁻¹ s⁻¹] | other results
1 | 10A9-2 (antibody, V domains shown) VH: QSLEESGGDLVQPGASLTLTCKASGFDLNNYAMLWVRQAPGKGLEWIGSIYISGGTTYFASWATGRFAISKTSSTTVTLQMTSLTAADTATYFCARDDGTTSYYLNLWGPGTLVTVSS VL: YDMTQTPASVSAAVGGTVTIKCQASEDIYSLLAWYQQKPGQPPKLLIYGASNLESGVPSRFKGSGSGTEYTLTISDLEADDAATYYCQQAYTIGNIDNAFGGGTEVVVK | 0.28 | 0.07 | 28 | 37 | 48 | 31 | 47 | 64 | no binding | 46 | 55 | 44 | 55 | 43 | 57 | 45 | 58 | 2.66 | 0.00089 | 335000 | EC50 [4]: 0.04 nM
2 | 5D4 (antibody, V domains shown, Rabbit-derived clone; LEM construct: VH + rabbit IgG CH1 + human IgG1 CH2-CH3) VH: QQLEESGGGLVKPEGSLTLTCKGSGFDFSGTYWMWWVRQAPGKGLEWIACIYVGSGSSTYYASWAKGRFTISSTSSTAVTLQATSLTAADTATYFCARGATNNVFMNYFNLWGPGTLVTVSS VL: FEMTQTPSSVSEPVGGTVTIKCQASEDISSNLGWYQQKPGQPPKLLIYGASTLASGVPSRFKGSGSGTEFTLTISDLECADAATYYCQTSYYIDDGVNGFGGGTEVVVK | 0.57 | 0.07 | 44 | 52 | 64 | 62 | 59 | 74 | no binding | 56 | 65 | 49 | 66 | 65 | 51 | 60 | 66 | 0.03 | 1.3e-05 | 522000 | EC50 [4]: 0.01 nM
3 | 5D4-2 (antibody, V domains shown) VH: QQLEESGGGLVKPEGSLTLTCKGSGFDFSGTYWMWWVRQAPGKGLEWIASIYVGSGSSTYYASWAKGRFTISSTSSTAVTLQATSLTAADTATYFCARGATNNVFMNYFNLWGPGTLVTVSS VL: FEMTQTPSSVSEPVGGTVTIKCQASEDISSNLGWYQQKPGQPPKLLIYGASTLASGVPSRFKGSGSGTEFTLTISDLEAADAATYYCQTSYYIDDGVNGFGGGTEVVVK | 0.52 | 0.08 | 51 | 67 | 58 | 23 | 43 | 61 | no binding | 55 | 61 | 48 | 57 | 52 | 58 | 57 | 62 | 0.12 | 6e-05 | 487000 | EC50 [4]: 0.04 nM
4 | 5D4-1 (antibody, V domains shown) VH: QQLEESGGGLVKPEGSLTLTCKGSGFDFSGTYWMWWVRQAPGKGLEWIAPIYVGSGSSTYYASWAKGRFTISSTSSTAVTLQATSLTAADTATYFCARGATNNVFMNYFNLWGPGTLVTVSS VL: FEMTQTPSSVSEPVGGTVTIKCQASEDISSNLGWYQQKPGQPPKLLIYGASTLASGVPSRFKGSGSGTEFTLTISDLEPADAATYYCQTSYYIDDGVNGFGGGTEVVVK | 0.61 | 0.11 | 59 | 57 | 62 | 42 | 56 | 73 | no binding | 58 | 66 | 56 | 61 | 59 | 64 | 57 | 63 | 0.1 | 5.1e-05 | 489000 | EC50 [4]: 0.01 nM
